Assay results published in article PMC9082959, “Mechanism of Assembly of the Non-Covalent Spectrin Tetramerization Domain from Intrinsically Disordered Partners” (Journal of molecular biology, 2013).

T1: β16β17 (erythrocyte β-spectrin residues 1898–2083), wild type (human, UniProt P11277 1898-2083)
T1 construct: erythrocyte β-spectrin, human, residues 1898-2083 (β16 plus the incomplete 17th domain); synthetic gene (GenScript) in a modified pRSETA plasmid; source: E. coli C41(DE3), purified (Ni2+ agarose, thrombin cleavage, gel filtration)
T1 sequence (looked up): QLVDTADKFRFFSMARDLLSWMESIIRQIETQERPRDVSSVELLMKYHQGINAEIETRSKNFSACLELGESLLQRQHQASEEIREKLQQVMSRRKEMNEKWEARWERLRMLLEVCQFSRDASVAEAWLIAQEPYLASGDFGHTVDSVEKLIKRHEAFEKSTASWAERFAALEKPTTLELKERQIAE


Tests used:
[1] = target: T1, β16β17 (erythrocyte β-spectrin residues …); assay: ITC; β16β17 at 25–50 μM in the cell titrated with 15–20 injections to 2–2.5 eq of α0α1; one-site binding model; PBS (50 mM sodium phosphate, 150 mM NaCl, pH 7.04), 25 °C; mutants only against the wild-type partner; conditions: both partners purified
[2] = target: T1, β16β17 (erythrocyte β-spectrin residues …); assay: as above; conditions: both partners purified; remark: listed apart in the source

Binder	Ka [1]	Ka [2]
α0α1 F97A (domain or fragment, human, UniProt P02549 2-163, looked up, mutant of m1; also called F38A; source: E. coli C41(DE3), purified (Ni2+ agarose, thrombin cleavage, gel filtration)) EQFPKETVVESSGPKVLETAEEIQERRQEVLTRYQSAKERVAERGQKLEDSYHLQVFKRDADDLGKWIMEKVNILTDKSYEDPTNIQGKYQKHQSLEAEVQTKSRLMSELEKTREERFTMGHSAHEETKAHIEELRHLWDLLLELTLEKGDQLLRALKFQQY	–	58000 M⁻¹
α0α1 R104A (domain or fragment, human, UniProt P02549 2-163, looked up, mutant of m1; also called R45A; source: E. coli C41(DE3), purified (Ni2+ agarose, thrombin cleavage, gel filtration)) EQFPKETVVESSGPKVLETAEEIQERRQEVLTRYQSFKERVAEAGQKLEDSYHLQVFKRDADDLGKWIMEKVNILTDKSYEDPTNIQGKYQKHQSLEAEVQTKSRLMSELEKTREERFTMGHSAHEETKAHIEELRHLWDLLLELTLEKGDQLLRALKFQQY	–	6.7e+06 M⁻¹
α0α1 R87G (domain or fragment, human, UniProt P02549 2-163, looked up, mutant of m1; also called R28G; source: E. coli C41(DE3), purified (Ni2+ agarose, thrombin cleavage, gel filtration)) EQFPKETVVESSGPKVLETAEEIQERGQEVLTRYQSFKERVAERGQKLEDSYHLQVFKRDADDLGKWIMEKVNILTDKSYEDPTNIQGKYQKHQSLEAEVQTKSRLMSELEKTREERFTMGHSAHEETKAHIEELRHLWDLLLELTLEKGDQLLRALKFQQY	4e+06 M⁻¹	–
α0α1 Y94A (domain or fragment, human, UniProt P02549 2-163, looked up, mutant of m1; also called Y35A; source: E. coli C41(DE3), purified (Ni2+ agarose, thrombin cleavage, gel filtration)) EQFPKETVVESSGPKVLETAEEIQERRQEVLTRAQSFKERVAERGQKLEDSYHLQVFKRDADDLGKWIMEKVNILTDKSYEDPTNIQGKYQKHQSLEAEVQTKSRLMSELEKTREERFTMGHSAHEETKAHIEELRHLWDLLLELTLEKGDQLLRALKFQQY	–	670000 M⁻¹
α0α1 T92G (domain or fragment, human, UniProt P02549 2-163, looked up, mutant of m1; also called T33G; source: E. coli C41(DE3), purified (Ni2+ agarose, thrombin cleavage, gel filtration)) EQFPKETVVESSGPKVLETAEEIQERRQEVLGRYQSFKERVAERGQKLEDSYHLQVFKRDADDLGKWIMEKVNILTDKSYEDPTNIQGKYQKHQSLEAEVQTKSRLMSELEKTREERFTMGHSAHEETKAHIEELRHLWDLLLELTLEKGDQLLRALKFQQY	3.3e+06 M⁻¹	–
α0α1 E99A (domain or fragment, human, UniProt P02549 2-163, looked up, mutant of m1; also called E40A; source: E. coli C41(DE3), purified (Ni2+ agarose, thrombin cleavage, gel filtration)) EQFPKETVVESSGPKVLETAEEIQERRQEVLTRYQSFKARVAERGQKLEDSYHLQVFKRDADDLGKWIMEKVNILTDKSYEDPTNIQGKYQKHQSLEAEVQTKSRLMSELEKTREERFTMGHSAHEETKAHIEELRHLWDLLLELTLEKGDQLLRALKFQQY	900000 M⁻¹	–
α0α1 E99G (domain or fragment, human, UniProt P02549 2-163, looked up, mutant of m1; also called E40G; source: E. coli C41(DE3), purified (Ni2+ agarose, thrombin cleavage, gel filtration)) EQFPKETVVESSGPKVLETAEEIQERRQEVLTRYQSFKGRVAERGQKLEDSYHLQVFKRDADDLGKWIMEKVNILTDKSYEDPTNIQGKYQKHQSLEAEVQTKSRLMSELEKTREERFTMGHSAHEETKAHIEELRHLWDLLLELTLEKGDQLLRALKFQQY	800000 M⁻¹	–
α0α1 L91A (domain or fragment, human, UniProt P02549 2-163, looked up, mutant of m1; also called L32A; source: E. coli C41(DE3), purified (Ni2+ agarose, thrombin cleavage, gel filtration)) EQFPKETVVESSGPKVLETAEEIQERRQEVATRYQSFKERVAERGQKLEDSYHLQVFKRDADDLGKWIMEKVNILTDKSYEDPTNIQGKYQKHQSLEAEVQTKSRLMSELEKTREERFTMGHSAHEETKAHIEELRHLWDLLLELTLEKGDQLLRALKFQQY	–	1.3e+06 M⁻¹
α0α1 Q88A (domain or fragment, human, UniProt P02549 2-163, looked up, mutant of m1; also called Q29A; source: E. coli C41(DE3), purified (Ni2+ agarose, thrombin cleavage, gel filtration)) EQFPKETVVESSGPKVLETAEEIQERRAEVLTRYQSFKERVAERGQKLEDSYHLQVFKRDADDLGKWIMEKVNILTDKSYEDPTNIQGKYQKHQSLEAEVQTKSRLMSELEKTREERFTMGHSAHEETKAHIEELRHLWDLLLELTLEKGDQLLRALKFQQY	–	1e+06 M⁻¹
α0α1 V101A (domain or fragment, human, UniProt P02549 2-163, looked up, mutant of m1; also called V42A; source: E. coli C41(DE3), purified (Ni2+ agarose, thrombin cleavage, gel filtration)) EQFPKETVVESSGPKVLETAEEIQERRQEVLTRYQSFKERAAERGQKLEDSYHLQVFKRDADDLGKWIMEKVNILTDKSYEDPTNIQGKYQKHQSLEAEVQTKSRLMSELEKTREERFTMGHSAHEETKAHIEELRHLWDLLLELTLEKGDQLLRALKFQQY	–	100000 M⁻¹

Further lines, results first:

Ka [1]	Ka [2]	Binder
1.2e+06 M⁻¹	–	α0α1 E85A (domain or fragment, human, UniProt P02549 2-163, looked up, mutant of m1; also called E26A; source: E. coli C41(DE3), purified (Ni2+ agarose, thrombin cleavage, gel filtration)) EQFPKETVVESSGPKVLETAEEIQARRQEVLTRYQSFKERVAERGQKLEDSYHLQVFKRDADDLGKWIMEKVNILTDKSYEDPTNIQGKYQKHQSLEAEVQTKSRLMSELEKTREERFTMGHSAHEETKAHIEELRHLWDLLLELTLEKGDQLLRALKFQQY
2.29e+06 M⁻¹	–	α0α1 Q95A (domain or fragment, human, UniProt P02549 2-163, looked up, mutant of m1; also called Q36A; source: E. coli C41(DE3), purified (Ni2+ agarose, thrombin cleavage, gel filtration)) EQFPKETVVESSGPKVLETAEEIQERRQEVLTRYASFKERVAERGQKLEDSYHLQVFKRDADDLGKWIMEKVNILTDKSYEDPTNIQGKYQKHQSLEAEVQTKSRLMSELEKTREERFTMGHSAHEETKAHIEELRHLWDLLLELTLEKGDQLLRALKFQQY
2e+06 M⁻¹	–	α0α1 Q95G (domain or fragment, human, UniProt P02549 2-163, looked up, mutant of m1; also called Q36G; source: E. coli C41(DE3), purified (Ni2+ agarose, thrombin cleavage, gel filtration)) EQFPKETVVESSGPKVLETAEEIQERRQEVLTRYGSFKERVAERGQKLEDSYHLQVFKRDADDLGKWIMEKVNILTDKSYEDPTNIQGKYQKHQSLEAEVQTKSRLMSELEKTREERFTMGHSAHEETKAHIEELRHLWDLLLELTLEKGDQLLRALKFQQY
220000 M⁻¹	–	α0α1 E103G (domain or fragment, human, UniProt P02549 2-163, looked up, mutant of m1; also called E44G; source: E. coli C41(DE3), purified (Ni2+ agarose, thrombin cleavage, gel filtration)) EQFPKETVVESSGPKVLETAEEIQERRQEVLTRYQSFKERVAGRGQKLEDSYHLQVFKRDADDLGKWIMEKVNILTDKSYEDPTNIQGKYQKHQSLEAEVQTKSRLMSELEKTREERFTMGHSAHEETKAHIEELRHLWDLLLELTLEKGDQLLRALKFQQY
670000 M⁻¹	–	α0α1 T92A (domain or fragment, human, UniProt P02549 2-163, looked up, mutant of m1; also called T33A; source: E. coli C41(DE3), purified (Ni2+ agarose, thrombin cleavage, gel filtration)) EQFPKETVVESSGPKVLETAEEIQERRQEVLARYQSFKERVAERGQKLEDSYHLQVFKRDADDLGKWIMEKVNILTDKSYEDPTNIQGKYQKHQSLEAEVQTKSRLMSELEKTREERFTMGHSAHEETKAHIEELRHLWDLLLELTLEKGDQLLRALKFQQY
1.3e+06 M⁻¹	–	α0α1 Q106A (domain or fragment, human, UniProt P02549 2-163, looked up, mutant of m1; also called Q47A; source: E. coli C41(DE3), purified (Ni2+ agarose, thrombin cleavage, gel filtration)) EQFPKETVVESSGPKVLETAEEIQERRQEVLTRYQSFKERVAERGAKLEDSYHLQVFKRDADDLGKWIMEKVNILTDKSYEDPTNIQGKYQKHQSLEAEVQTKSRLMSELEKTREERFTMGHSAHEETKAHIEELRHLWDLLLELTLEKGDQLLRALKFQQY
830000 M⁻¹	–	α0α1 E85G (domain or fragment, human, UniProt P02549 2-163, looked up, mutant of m1; also called E26G; source: E. coli C41(DE3), purified (Ni2+ agarose, thrombin cleavage, gel filtration)) EQFPKETVVESSGPKVLETAEEIQGRRQEVLTRYQSFKERVAERGQKLEDSYHLQVFKRDADDLGKWIMEKVNILTDKSYEDPTNIQGKYQKHQSLEAEVQTKSRLMSELEKTREERFTMGHSAHEETKAHIEELRHLWDLLLELTLEKGDQLLRALKFQQY
200000 M⁻¹	–	α0α1 Q106G (domain or fragment, human, UniProt P02549 2-163, looked up, mutant of m1; also called Q47G; source: E. coli C41(DE3), purified (Ni2+ agarose, thrombin cleavage, gel filtration)) EQFPKETVVESSGPKVLETAEEIQERRQEVLTRYQSFKERVAERGGKLEDSYHLQVFKRDADDLGKWIMEKVNILTDKSYEDPTNIQGKYQKHQSLEAEVQTKSRLMSELEKTREERFTMGHSAHEETKAHIEELRHLWDLLLELTLEKGDQLLRALKFQQY
–	4.4e+06 M⁻¹	α0α1 Y94L (domain or fragment, human, UniProt P02549 2-163, looked up, mutant of m1; also called Y35L; source: E. coli C41(DE3), purified (Ni2+ agarose, thrombin cleavage, gel filtration)) EQFPKETVVESSGPKVLETAEEIQERRQEVLTRLQSFKERVAERGQKLEDSYHLQVFKRDADDLGKWIMEKVNILTDKSYEDPTNIQGKYQKHQSLEAEVQTKSRLMSELEKTREERFTMGHSAHEETKAHIEELRHLWDLLLELTLEKGDQLLRALKFQQY
810000 M⁻¹	–	α0α1 E103A (domain or fragment, human, UniProt P02549 2-163, looked up, mutant of m1; also called E44A; source: E. coli C41(DE3), purified (Ni2+ agarose, thrombin cleavage, gel filtration)) EQFPKETVVESSGPKVLETAEEIQERRQEVLTRYQSFKERVAARGQKLEDSYHLQVFKRDADDLGKWIMEKVNILTDKSYEDPTNIQGKYQKHQSLEAEVQTKSRLMSELEKTREERFTMGHSAHEETKAHIEELRHLWDLLLELTLEKGDQLLRALKFQQY
